Results as given in patent US20240307560A1, “HEPTAMETHINE CARBOCYANINE DYE-DOTA CONJUGATES COMPLEXED WITH LUTETIUM-177, YTTRIUM-90, OR GALLIUM-68, AND THEIR USES FOR IMAGE-GUIDED RADIOTHERAPY” (priority 2020, published 2024).

Columns and labels:
[1] = in vivo; set-up: species or system Balb/C mice; settings: Balb/C, mouse, iv
Method: DZ-1-Lys-DOTA-^68Ga (50 μCi) probe was injected into the tail vein of Balb/C mice (n=6, each about 20 g of body weight). Approximately 10 μL of blood from the contralateral tail vein was collected in capillary tubes at 2 min, 5 min, 15 min, 30 min, 1 h, 2 h and 4.5 h post probe injection. The capillaries were placed in pre-weighed tubes to measure the weight and radioactivity of the blood withdrawn. Radioactivity from each sample was measured by a gamma counter with radioactivity decay corrected to the time of probe injection, normalized for injected dose and blood weight, and expressed as percentage injected dose per gram blood (FIG. 2). Each animal was i.v. injected 50 μCi of the probe.
DZ-1-Lys-DOTA-^177Lu (50 μCi) was injected into the tail vein of Balb/C mice (n=6, about 20 g). Approximately 10 μL of blood from the contralateral tail vein was collected in capillary tubes at 2 min, 5 min, 15 min, 30 min, 1 h, 2 h and 6 h post probe injection. The capillaries were placed in pre-weighed tubes to measure the weight and radioactivity of the blood withdrawn. Radioactivity from each sample was measured by a gamma counter with the radioactivity decay corrected to the time of probe injection, normalized for injected dose and blood weight, and expressed as percentage injected dose per gram blood.

[2] = format: in vitro ADME, Bovine; settings: for half-life (stability in serum): bovine
Method: DZ-1-Lys-DOTA-^68Ga was incubated with Fetal Bovine Serum (FBS) at 37° C., and the stability of DZ-1-Lys-DOTA-^68Ga was analyzed by radio-TLC with 0.1M citric acid as eluent.
The % purity is a marker for stability, with a higher purity indicating a higher stability.
The DZ-1-Lys-DOTA-^177Lu was incubated with Fetal Bovine Serum (FBS) at 37° C., and the probe was analyzed by radio-TLC with 0.1M citric acid as eluent (see FIG. 3). Stability is determined by the percentage of the labeled compound (radiochemical purity).
The DZ-1-Lys-DOTA-^90Y was incubated with Fetal Bovine Serum (FBS) (V:V=2:1) at 37° C. and the probe was analyzed by radio-TLC with 0.1M citric acid as eluent.

[3] = tested on: MDA-MB-231 breast cancer cells; test: Cytotoxicity study, CCK-8; settings: for % cell viability: human
Method: The MDA-MB-231 breast cancer cells were pre-seeded into 96-well plates (10^4 cells/well), and placed in a 37° C., 5% CO2 incubator until the cells were fully attached. Serially diluted DZ-1-Lys-DOTA-^90Y (100 μL) was added to each well (7 concentrations diluted from 20 μCi in half), and 3 replicate wells for each concentration point. After 24 and 48 hours of treatment, the supernatant was discarded, and 10 μL of CCK-8 solution and 100 μL of medium were added to each well. The culture was continued for 1 h in the incubator, and the absorbance of each well at 450 nm was measured with a microplate reader.

[4] = 50 uCi, total radioactivity, Normalized radioactivity in blood (% ID/g)

Compound: CC1(C)C(/C=C/C2=C(Cl)C(=C/C=C3/N(CCCCCC(=O)NCCCCC(NC(=O)CN4CCN(CC(=O)O)CCN(CC(=O)O)CCN(CC(=O)O)CC4)C(=O)O)c4ccccc4C3(C)C)/CCC2)=[N+](CCCCS(=O)(=O)[O-])c2ccccc21 (single isomer, unassigned) [DZ-1-Lys-DOTA-68Ga, metal not drawn]
- elimination half-life for blood clearance (T1/2) [1]: 30 min
- Normalized radioactivity in blood (% ID/g) ([1]; 50 uCi, 0.25 h): 1.13 % ID/g
- Normalized radioactivity in blood (% ID/g) ([1]; 50 uCi, 0.5 h): 0.97 % ID/g
- Normalized radioactivity in blood (% ID/g) ([1]; 50 uCi, 1 h): 0.80 % ID/g
- Normalized radioactivity in blood (% ID/g) ([1]; 50 uCi, 2 h): 0.70 % ID/g
- tissue uptake at 2 min [1, 4]: 1.83 %ID/g
- tissue uptake at 5 min [1, 4]: 1.44 %ID/g
- tissue uptake at 4.5 h [1, 4]: 0.5 %ID/g
- tissue uptake ([1]; 50 uCi, total radioactivity, normalized radioactivity in blood (D/g)): ~1.8 %ID/g

Compound: CC1(C)C(/C=C/C2=C(Cl)C(=C/C=C3/N(CCCCCC(=O)NCCCCC(NC(=O)CN4CCN(CC(=O)O)CCN(CC(=O)O)CCN(CC(=O)O)CC4)C(=O)O)c4ccccc4C3(C)C)/CCC2)=[N+](CCCCS(=O)(=O)[O-])c2ccccc21 (single isomer, unassigned) [DZ-1-Lys-DOTA-90Y, metal not drawn]
- retention (radiochemical purity) [2]: about 30%
- half-life (stability in serum) [2]: about 240 min
- breast cancer cells caused to die ([3]; 20 μCi, within 48 hours): 80%
- cancer cell killing compared to free 90Y (in words) ([3]; 48 h, 20 microCi): kills MDA-MB-231 triple-negative breast cancer cells more effectively
- % cell viability ([3]; 48 h, 0.3125 μCi): 43.92%
- % cell viability ([3]; 48 h, 0.625 μCi): 42.08%
- % cell viability ([3]; 48 h, 1.25 μCi): 41.50%
- % cell viability ([3]; 48 h, 2.5 μCi): 39.63%
- % cell viability ([3]; 48 h, 5 μCi): 35.57%
- % cell viability ([3]; 48 h, 10 μCi): 35.46%
- % cell viability ([3]; 48 h, 20 μCi): 19.21%

Compound: CC1(C)C(/C=C/C2=C(Cl)C(=C/C=C3/N(CCCCCC(=O)NCCCCC(NC(=O)CN4CCN(CC(=O)O)CCN(CC(=O)O)CCN(CC(=O)O)CC4)C(=O)O)c4ccccc4C3(C)C)/CCC2)=[N+](CCCCS(=O)(=O)[O-])c2ccccc21 (single isomer, unassigned) [DZ-1-Lys-DOTA-177Lu, metal not drawn]
- retention (radiochemical purity) [2]: about 30%
- half-life (stability in serum) [2]: about 700 min
- elimination half-life for blood clearance (T1/2) [1]: 15 min
- Normalized radioactivity in blood (% ID/g) ([1]; 50 uCi, 2 min): 1.26 % ID/g
- Normalized radioactivity in blood (% ID/g) ([1]; 50 uCi, 5 min): 0.86 % ID/g
- Normalized radioactivity in blood (% ID/g) ([1]; 50 uCi, 0.25 h): 0.51 % ID/g
- Normalized radioactivity in blood (% ID/g) ([1]; 50 uCi, 0.5 h): 0.43 % ID/g
- Normalized radioactivity in blood (% ID/g) ([1]; 50 uCi, 1 h): 0.36 % ID/g
- Normalized radioactivity in blood (% ID/g) ([1]; 50 uCi, 2 h): 0.34 % ID/g
- tissue uptake at 6 h [1, 4]: 0.23 %ID/g
